± gives the standard deviation of the averaged measurements.
Assay: total protein half-life in vivo (active degradation + dilution); higher = more stable protein
[1] = E. coli NCM3722 delta-clpP delta-lon delta-hslV, growth: N-lim chemostat, doubling time 6 h
[2] = wild type E. coli NCM3722, growth: N-lim chemostat, doubling time 6 h
[3] = E. coli NCM3722 delta-clpP, growth: N-lim chemostat, doubling time 6 h
[4] = E. coli NCM3722 delta-hslV, growth: N-lim chemostat, doubling time 6 h
[5] = E. coli NCM3722 delta-lon, growth: N-lim chemostat, doubling time 6 h
[6] = E. coli NCM3722 delta-smpB, growth: N-lim chemostat, doubling time 6 h
[7] = wild type E. coli NCM3722, growth: C-lim chemostat, doubling time 3 h
[8] = wild type E. coli NCM3722, growth: C-lim chemostat, doubling time 12 h
[9] = wild type E. coli NCM3722, growth: N-lim chemostat, doubling time 12 h
[10] = wild type E. coli NCM3722, growth: P-lim chemostat, doubling time 6 h

Sequence | total protein half-life in vivo [1] [h] | total protein half-life in vivo [2] [h] | total protein half-life in vivo [3] [h] | total protein half-life in vivo [4] [h] | total protein half-life in vivo [5] [h] | total protein half-life in vivo [6] [h] | total protein half-life in vivo [7] [h] | total protein half-life in vivo [8] [h] | total protein half-life in vivo [9] [h] | total protein half-life in vivo [10] [h] | total protein half-life in vivo (wild type E. coli NCM3722, growth: C-lim chemostat, doubling time 6 h) [h] | total protein half-life in vivo (wild type E. coli NCM3722, growth: P-lim chemostat, doubling time 12 h) [h]
MTEIYEQAKHSLQGEDFSSFNYLFAVNKLLSNPVSYDLGRDLIVRALDSRERFSEHTTILKNMVRKSGLFPYLKKEFTSLTPDDLRVLELYRTPFSDGYVFHSMQFHIFDLLKSGQNVVLSAPTSMGKSAIVDSLLGMGTLKRLVLVVPTVALADETRRRLQERFGDRYQIIHHSSQVCHSDQAVYVLTQERVNERDDIVDIDLFVIDEFYKLAFRQLKSGDIDHQDERVIELNIALSKLLKVSRQFYLTGPFVNSIRGLEKLGYPHTFVSTDFNTVALDVKTFGIKANDDKAKLKALGEIAHACVDATIIYCKSPTVAGLVARELIRLGHGTPTENPHVDWVSEEFDADWDYTVALRNGIGLHFGALPRALQQYTADQFNAGKLRFLLCTSTIIEGVNTIAKNVVIYDNRDGTRSIDKFTHGNIKGRAGRMGVHFVGKIFCLEEIPEDNLNQEVDIPLGIQGIDTPINLLASVQPDHLSEFSQDRFDEVFINDRVSIDLVKKHSYFRVEQFEMLQSMFEMMDDNEFSSLVFHWTPATNFLKTFAKIIARLVPHTFSRNGVPVKPTDVMIAKLAGYLSAESYSEYLKNQIDYARQWISEGEKRTLSIALNNDLKLITNTFGYTLPKVLSLMEDVVKHHAVKRGIRSKVDYTHVKLAFESFHLPPGVNALEEIGIPIQTLHRLVDLLEFSDEADVDELSQYLRDTQDIWSRSIGYVDQMFIRRALGIRRH | 6.27 ± 1.3 |  |  |  |  |  |  |  |  |  |  | 
MGIIAQNKISSLGMLFGAIALMMGIIHFSFGPFSAPPPTFESIVADKTAEIKRGLLAGIKGEKITTVEKKEDVDVDKILNQSGIALAIAALLCAFIGGMRKENRWGIRGALVFGGGTLAFHTLLFGIGIVCSILLIFLIFSFLTGGSLV |  | 5.09 |  |  |  |  |  |  |  |  |  | 
MSEIKDVIVQGLWKNNSALVQLLGLCPLLAVTSTATNALGLGLATTLVLTLTNLTISTLRHWTPAEIRIPIYVMIIASVVSAVQMLINAYAFGLYQSLGIFIPLIVTNCIVVGRAEAFAAKKGPALSALDGFSIGMGATCAMFVLGSLREIIGNGTLFDGADALLGSWAKVLRVEIFHTDSPFLLAMLPPGAFIGLGLMLAGKYLIDERMKKRRAEAAAERALPNGETGNV | 2.66 ± 0.39 | 3.33 | 3.52 | 2.7 | 2.38 ± 0.21 | 4.72 ± 0.73 | 2.72 ± 0.066 | 5.17 | 5.84 ± 1.2 | 3.64 |  | 
MAFQVKIHQIRAFVEVARQGSIRGASRMLNMSQPALSKSIQELEEGLAAQLFFRRSKGVTLTDAGESFYQHASLILEELRAAQEDIRQRQGQLAGQINIGMGASISRSLMPAVISRFHQQHPQVKVRIMEGQLVSMINELRQGELDFTINTYYQGPYDHEFTFEKLLEKQFAIFCRPGHPAIGARSIKQLLDYSWTMPTPHGSYYKQLSELLDDQAQTPQVGVVCETFSACISLVAKSDFLSKLPEEMGCDPLHGQGLVMLPVSEILPKAAYYLIQRRDSRQTPLTASLITQFRRECGYLQS |  | 0.867 |  |  | 2.39 ± 0.088 |  |  |  | 0.857 |  |  | 
MLRIAKEALTFDDVLLVPAHSTVLPNTADLSTQLTKTIRLNIPMLSAAMDTVTEARLAIALAQEGGIGFIHKNMSIERQAEEVRRVKKHESGVVTDPQTVLPTTTLREVKELTERNGFAGYPVVTEENELVGIITGRDVRFVTDLNQPVSVYMTPKERLVTVREGEAREVVLAKMHEKRVEKALVVDDEFHLIGMITVKDFQKAERKPNACKDEQGRLRVGAAVGAGAGNEERVDALVAAGVDVLLIDSSHGHSEGVLQRIRETRAKYPDLQIIGGNVATAAGARALAEAGCSAVKVGIGPGSICTTRIVTGVGVPQITAVADAVEALEGTGIPVIADGGIRFSGDIAKAIAAGASAVMVGSMLAGTEESPGEIELYQGRSYKSYRGMGSLGAMSKGSSDRYFQSDNAADKLVPEGIEGRVAYKGRLKEIIHQQMGGLRSCMGLTGCGTIDELRTKAEFVRISGAGIQESHVHDVTITKESPNYRLGS [P0ADG7] | 5.001 ± 0.0064 | 4.29 ± 0.39 | 3.78 ± 0.047 | 4.06 ± 0.047 | 4.91 ± 0.38 | 3.95 ± 0.36 | 3.01 ± 0.44 | 11.2 ± 1.9 | 6.68 ± 0.18 | 6.02 ± 0.29 | 5.76 ± 0.073 | 12.5 ± 0.63

Reference: the supplement of paper PMC11246515
